What was measured:
[1] = molecular target: T1, Human VSIG4-L-Fc (human); assay: BLI binning on hVSIG4-L-Fc, competitor 15C03 first;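 note: normalized to binding of second antibody without first competitor antibody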
T1 construct: also called hVSIG4-L-Fc; hVSIG4-L

[2] = molecular target: T2, Human VSIG4-L-CHO (human VSIG4 long isoform on CHO-K1 cells) (human, UniProt Q9Y279 20-399); assay: flow cytometry (FJB), 200 nM mAb, huVSIG4-L CHO-K1 over parental CHO-K1
T2 construct: also called hVSIG4-L (flow cytometry)
T2 sequence: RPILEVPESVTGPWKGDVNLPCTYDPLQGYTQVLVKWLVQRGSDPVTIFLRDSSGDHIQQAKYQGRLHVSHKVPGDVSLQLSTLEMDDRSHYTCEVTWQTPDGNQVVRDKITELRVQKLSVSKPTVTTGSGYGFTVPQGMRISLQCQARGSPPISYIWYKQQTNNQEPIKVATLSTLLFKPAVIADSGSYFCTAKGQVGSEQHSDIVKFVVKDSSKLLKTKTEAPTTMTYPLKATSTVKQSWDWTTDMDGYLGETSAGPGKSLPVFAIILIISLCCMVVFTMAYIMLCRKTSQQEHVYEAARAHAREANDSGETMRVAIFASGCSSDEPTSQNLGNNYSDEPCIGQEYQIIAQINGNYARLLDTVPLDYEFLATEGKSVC

[3] = molecular target: T1, Human VSIG4-L-Fc; assay: BLI binning on hVSIG4-L-Fc, competitor 16E10 first;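 note: normalized to binding of second antibody without first competitor antibody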
[4] = molecular target: T3, Human VSIG4-L-His (human, UniProt Q9Y279 20-283); assay: SPR (FJB)
T3 construct: long isoform ECD with His tag; also called hVSIG4-L
T3 sequence: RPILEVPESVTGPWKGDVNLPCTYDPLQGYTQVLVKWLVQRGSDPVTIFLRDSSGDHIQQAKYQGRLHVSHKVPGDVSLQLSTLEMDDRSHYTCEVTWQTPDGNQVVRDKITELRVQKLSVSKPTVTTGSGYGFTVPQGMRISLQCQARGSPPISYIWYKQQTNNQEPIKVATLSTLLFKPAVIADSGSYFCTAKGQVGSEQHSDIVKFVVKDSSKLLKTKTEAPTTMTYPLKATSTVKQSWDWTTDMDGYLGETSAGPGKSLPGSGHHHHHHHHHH

[5] = molecular target: T4, Cynomolgus Monkey VSIG4-L-His (cynomolgus monkey); assay: SPR (FJB)
T4 construct: ECD with His tag; also called cyVSIG4-L; cyno VSIG4-L-His
T4 chain: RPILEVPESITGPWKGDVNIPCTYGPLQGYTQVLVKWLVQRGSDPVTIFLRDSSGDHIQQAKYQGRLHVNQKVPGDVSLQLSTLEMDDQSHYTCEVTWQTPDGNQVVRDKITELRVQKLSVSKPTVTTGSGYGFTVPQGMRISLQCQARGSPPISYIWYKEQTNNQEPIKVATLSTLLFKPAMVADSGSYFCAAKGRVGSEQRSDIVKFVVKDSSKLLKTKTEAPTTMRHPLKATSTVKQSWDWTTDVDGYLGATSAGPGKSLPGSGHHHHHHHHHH

[6] = molecular target: T1, Human VSIG4-L-Fc; assay: ELISA, IgG 50 nM on coated antigen;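 note: Mouse-human chimeric IgG4 antibodies incubated 1 h on plate-coated VSIG4 proteins, bound IgG detected with HRP-labelled anti-human IgG, irrelevant antibody and protein as specificity controls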
[7] = molecular target: T5, Mouse VSIG4-His (mouse); assay: ELISA, IgG 50 nM on coated antigen;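 note: Mouse-human chimeric IgG4 antibodies incubated 1 h on plate-coated VSIG4 proteins, bound IgG detected with HRP-labelled anti-human IgG, irrelevant antibody and protein as specificity controls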
T5 construct: ECD with His tag; also called mVSIG4
T5 chain: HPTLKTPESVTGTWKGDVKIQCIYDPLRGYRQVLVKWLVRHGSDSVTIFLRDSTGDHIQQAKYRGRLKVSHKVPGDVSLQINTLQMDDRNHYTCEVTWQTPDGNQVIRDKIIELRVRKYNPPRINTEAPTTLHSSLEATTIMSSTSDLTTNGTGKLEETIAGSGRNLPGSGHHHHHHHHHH

[8] = molecular target: T6, Human VSIG4-S-Fc (human); assay: ELISA, IgG 50 nM on coated antigen;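 note: Mouse-human chimeric IgG4 antibodies incubated 1 h on plate-coated VSIG4 proteins, bound IgG detected with HRP-labelled anti-human IgG, irrelevant antibody and protein as specificity controls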
T6 construct: short isoform ECD fused to human Fc1; also called hVSIG4-S

[9] = molecular target: T4, Cynomolgus Monkey VSIG4-L-His; assay: ELISA, IgG 50 nM on coated antigen;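 note: Mouse-human chimeric IgG4 antibodies incubated 1 h on plate-coated VSIG4 proteins, bound IgG detected with HRP-labelled anti-human IgG, irrelevant antibody and protein as specificity controls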
[10] = molecular target: T1, Human VSIG4-L-Fc; assay: ligand blocking of iC3b, IgG
[11] = molecular target: T1, Human VSIG4-L-Fc; assay: BLI binning on hVSIG4-L-Fc, competitor 14D12 first;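 note: normalized to binding of second antibody without first competitor antibody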
[12] = molecular target: T3, Human VSIG4-L-His; assay: BLI, IgG on AHC sensor, antigen 100 nM
[13] = molecular target: T4, Cynomolgus Monkey VSIG4-L-His; assay: BLI, IgG on AHC sensor, antigen 100 nM
[14] = molecular target: T1, Human VSIG4-L-Fc; assay: ligand blocking of C3b, IgG
[15] = molecular target: T1, Human VSIG4-L-Fc; assay: ligand competition ELISA (FJB), blocked ligand iC3b
[16] = molecular target: T1, Human VSIG4-L-Fc; assay: BLI binning on hVSIG4-L-Fc, competitor 12A12 first;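 note: normalized to binding of second antibody without first competitor antibody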
[17] = molecular target: T1, Human VSIG4-L-Fc; assay: BLI binning on hVSIG4-L-Fc, competitor 14C05 first;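 note: normalized to binding of second antibody without first competitor antibody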
[18] = molecular target: T3, Human VSIG4-L-His; assay: BLI (Octet), IgG on AHC sensor, antigen 100 nM
[19] = molecular target: T7, Human VSIG4-S-His (human, UniProt Q9Y279 20-283); assay: BLI (Octet), IgG on AHC sensor, antigen 100 nM
T7 construct: short isoform ECD with His tag; also called hVSIG4-S; VISG4-S-His
T7 sequence: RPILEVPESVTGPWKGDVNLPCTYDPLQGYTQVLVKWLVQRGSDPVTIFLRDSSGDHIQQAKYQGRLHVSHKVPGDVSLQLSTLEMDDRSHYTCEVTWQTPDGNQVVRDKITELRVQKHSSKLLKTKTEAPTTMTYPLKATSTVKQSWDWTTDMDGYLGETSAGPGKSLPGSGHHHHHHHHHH

[20] = molecular target: T4, Cynomolgus Monkey VSIG4-L-His; assay: BLI (Octet), IgG on AHC sensor, antigen 100 nM
[21] = molecular target: T2, Human VSIG4-L-CHO (human VSIG4 long …); assay: flow cytometry (FJB), 200 nM mAb, huVSIG4-L CHO-K1 cells
[22] = molecular target: T1, Human VSIG4-L-Fc; assay: ligand competition ELISA (FJB), blocked ligand C3b
[23] = molecular target: T2, Human VSIG4-L-CHO (human VSIG4 long …); assay: flow cytometry, CHO-K1 cells expressing hVSIG4-L
[24] = molecular target: T1, Human VSIG4-L-Fc; assay: BLI binning on hVSIG4-L-Fc, competitor 15A06 first;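 note: normalized to binding of second antibody without first competitor antibody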
[25] = molecular target: T1, Human VSIG4-L-Fc; assay: BLI binning on hVSIG4-L-Fc, competitor 12A08 first;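 note: normalized to binding of second antibody without first competitor antibody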
[26] = molecular target: T1, Human VSIG4-L-Fc; assay: BLI binning on hVSIG4-L-Fc, competitor 16E03 first;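 note: normalized to binding of second antibody without first competitor antibody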
[27] = molecular target: T1, Human VSIG4-L-Fc; assay: BLI binning on hVSIG4-L-Fc, competitor 15C04 first;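 note: normalized to binding of second antibody without first competitor antibody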
[28] = molecular target: T1, Human VSIG4-L-Fc; assay: BLI binning on hVSIG4-L-Fc, competitor 13H11 first;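 note: normalized to binding of second antibody without first competitor antibody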
[29] = molecular target: T1, Human VSIG4-L-Fc; assay: blocking ELISA, biotin-C3b on coated hVSIG4-L-Fc
[30] = molecular target: T3, Human VSIG4-L-His; assay: SPR (Biacore T200), Fab P.E. 1:5 over immobilised antigen
[31] = molecular target: T1, Human VSIG4-L-Fc; assay: ELISA, Fab P.E. 1:5 on coated antigen;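 note: mouse Fab P.E. samples in 1% skimmed milk PBS, bound to antigen-coated wells for 1 h at room temperature, read as absorbance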
[32] = molecular target: T6, Human VSIG4-S-Fc; assay: ELISA, Fab P.E. 1:5 on coated antigen;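 note: mouse Fab P.E. samples in 1% skimmed milk PBS, bound to antigen-coated wells for 1 h at room temperature, read as absorbance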
[33] = molecular target: T4, Cynomolgus Monkey VSIG4-L-His; assay: ELISA, Fab P.E. 1:5 on coated antigen;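 note: mouse Fab P.E. samples in 1% skimmed milk PBS, bound to antigen-coated wells for 1 h at room temperature, read as absorbance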
[34] = molecular target: T1, Human VSIG4-L-Fc; assay: blocking ELISA, biotin-iC3b on coated hVSIG4-L-Fc

T1 sequence (chain, as listed by the source limits assumed): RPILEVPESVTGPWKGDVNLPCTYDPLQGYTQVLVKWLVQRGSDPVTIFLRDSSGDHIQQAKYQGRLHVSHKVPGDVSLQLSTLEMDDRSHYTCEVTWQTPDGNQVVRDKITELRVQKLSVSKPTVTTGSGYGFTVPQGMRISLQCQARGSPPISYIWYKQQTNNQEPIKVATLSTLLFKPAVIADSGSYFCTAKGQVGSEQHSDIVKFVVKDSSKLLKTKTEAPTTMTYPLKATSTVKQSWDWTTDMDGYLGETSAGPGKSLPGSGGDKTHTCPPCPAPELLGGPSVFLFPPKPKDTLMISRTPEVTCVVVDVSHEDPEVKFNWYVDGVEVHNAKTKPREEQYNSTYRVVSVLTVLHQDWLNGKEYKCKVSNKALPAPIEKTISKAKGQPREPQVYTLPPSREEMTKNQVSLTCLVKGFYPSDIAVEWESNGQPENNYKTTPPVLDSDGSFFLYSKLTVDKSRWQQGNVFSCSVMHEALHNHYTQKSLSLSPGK

B1: 14D12 mouse/human chimeric IgG4 (S228P) kappa (antibody, V domains shown)
VH: QIQLVQSGPELKKPGETVKISCKASGYTFTNYGMNWVKQTPGKGLKWMGLINTYTGEPTYADDFKGRFAFSLETSASTAYLQINNLKNEDMATYFCARERIYGYLHYFDYWGQGTTLTVSS
VL: DVVMTQTPASLAVSLGQRATISCKASQSVDYDGDSYMNWYQQKPGQPPKLLIYAASNLESGIPARFSGSGSGTDFTLNIHPVEEEDAATYYCQQSNEDPRTFGGGTKLEIKR
normalized maximum binding nm shift [1]: 0.59 normalized | Binding (200 nM) Fold-Over-Parental [2]: 112 fold | normalized maximum binding nm shift [3]: 0.93 normalized | Kd [4]: 10.5 nM | Kd [5]: 4.4 nM | ELISA OD450 [6]: 4.53 OD450 | ELISA OD450 [7]: 0.05 OD450 | ELISA OD450 [8]: 3.43 OD450 | ELISA OD450 [9]: 4.52 OD450 | Percent Blocking iC3b [10]: 98% | normalized maximum binding nm shift [11]: 0.08 normalized | KD relative to parental chimera [12]: 1 fold | KD relative to parental chimera [13]: 1 fold | Percent Blocking C3b [14]: 97% | IC50 [15]: 0.6 nM | normalized maximum binding nm shift [16]: 0.75 normalized | normalized maximum binding nm shift [17]: 0.12 normalized | Kd [18]: 21.5 nM | Kd [19]: 28.7 nM | Kd [20]: 16.1 nM | Binding (200 nM) MFI [21]: 36400 MFI | IC50 [22]: 0.8 nM | EC50 [23]: 2.8 nM | normalized maximum binding nm shift [24]: 0.75 normalized | normalized maximum binding nm shift [25]: 0.73 normalized | normalized maximum binding nm shift [26]: 0.68 normalized | normalized maximum binding nm shift [27]: 0.8 normalized | normalized maximum binding nm shift [28]: 0.69 normalized

B2: 12A08 mouse Fab (periplasmic extract) (Fab, V domains shown)
VH: EVMLVESGGGLVKPGGSLKLSCAASGFTFDDFYMYWVRQTPEKRLEWVASISDGGTYTYYPDSVKGRFTISRDNAKNTLYLQLSSLKSEDTAMYYCARGVDKYYYAMDYWGQGTSVTVSS
VL: QILLTQSPAIMSASPGEKVTITCSASSSVSYMHWFQQKPGTSPKLWIYSTSNLASGVPARFSGSGSGTSYSLTISRMEAEDAATYYCQQRSSYPLTFGAGTKLELK
notes: mouse Fab with C-terminal His6-c-myc tag
Percent Blocking C3b [29]: 57.6% | koff [30]: 0.013 s⁻¹ | ELISA OD450 [31]: 4.45 OD450 | ELISA OD450 [32]: 4.09 OD450 | ELISA OD450 [33]: 4.27 OD450 | Percent Blocking iC3b [34]: 53.4%

B3: 12A12 mouse Fab (periplasmic extract) (Fab, V domains shown)
VH: QVQMKQSGAELAKPGASVKMSCKASGYTFTNYWMHWVKQRPGQGLEWIGYINPSTGYTDYNQNFKDRATLTADKSSSTAYMQLSSLTSEDSAVYYCIRGSDYYGRDYWGQGTTLTVSS
VL: DIQMTQTTSSLSASLGDRVTISCRASQDISNYLNWYQQKPDGTLKLLIYYTSRLHSGVPSRFSGSGSGTDYSLTISNLEQEDIATYFCRQGNTLPWTFGGGTKLEIK
notes: as for B2
Percent Blocking C3b [29]: 74.8% | koff [30]: 0.0038 s⁻¹ | ELISA OD450 [31]: 4.42 OD450 | ELISA OD450 [32]: 4.18 OD450 | ELISA OD450 [33]: 4.37 OD450 | Percent Blocking iC3b [34]: 76.5%

B4: 15A06 mouse Fab (periplasmic extract) (Fab, V domains shown)
VH: QVQMKQSGPSLVRPSQTLSLTCSVTGDSITSGYWNWIRKFPGDKFEYLGYISYSGFTYYNPSLKSRVSITRDTSKNQYYLQLHSVTTEDTATYYCASSKYGSSLGFPYWGQGTLVTVSA
VL: DVVMTQTPLSLPVSLGDQASISCRSSQSLVHSNGNTYLHWYLQKPGQSPKLLIYKVSNRFSGVPDRFSGSGSGTDFTLKISRVEAEDLGVYFCSQSTHVPFTFGSGTKLEIK
notes: as for B2
koff [30]: 0.0015 s⁻¹ | ELISA OD450 [31]: 4.42 OD450 | ELISA OD450 [32]: 0.06 OD450 | ELISA OD450 [33]: 0.05 OD450 | Percent Blocking iC3b [34]: 1.4%

B5: 15C03 mouse Fab (periplasmic extract) (Fab, V domains shown)
VH: EVKLLESGPGLVKPSQSLSLTCTVTGYSITSDYAWNWIRQFPGNKLEWMGYISYSGSTRYNPSLKSRISITRDTSNNQFFLQLNSVTTEDTATYYCARSGYAAMDYWGQGTSVTVSS
VL: ENVLTQSPAIMSASPGEKVTMTCRASSSVSSSYLHWYQQKSGASPKLWIYSTSNLASGVPARFSGSGSGTSYSLTISSVEAEDAATYYCQQYSGYPLTFGSGTKLEIK
notes: as for B2
Percent Blocking C3b [29]: 42.7% | koff [30]: 0.0076 s⁻¹ | ELISA OD450 [31]: 4.2 OD450 | ELISA OD450 [32]: 4.05 OD450 | ELISA OD450 [33]: 0.05 OD450

B6: 13H11 mouse Fab (periplasmic extract) (Fab, V domains shown)
VH: QIQLVQSGPELKKPGETVKISCKASGYTFENFGMNWVKQAPGKGLKWMGWINTYTGEATYADDFKGRFAFSLETSASTAYLQINNLKNEDTATYFCARDGGFRHFDVWGAGTTVTVSS
VL: ETTVTQSPASLSVATGEKVTIRCITSTDIDDDMNWYQQKPGEPPKLLISEGNTLRPGVPSRFSSSGYGTDFVFTIENMLSEDVADYYCLQSDNLPLTFGAGTKLELK
notes: as for B2
Percent Blocking C3b [29]: 46.9% | koff [30]: 0.045 s⁻¹ | ELISA OD450 [31]: 4.33 OD450 | ELISA OD450 [32]: 0.06 OD450 | ELISA OD450 [33]: 4.34 OD450

— patent publication US20230348603A1 (VERSEAU THERAPEUTICS, published 2023)
